Experimental data: publication PMC6693562 (Cell Reports, 2019)
Changes are numbered by the printed parent chain. In names and notes the source's numbering stands.

B1: MBP-OD^WT (human 53BP1 oligomerization domain, residues 1233-1288, fused to N-terminal maltose-binding protein) (domain or fragment, UniProt Q12888 1233-1288, looked up)
chain: GHVLHRHMRTIREVRTLVTRVITDVYYVDGTEVERKVTEETEEPIVECQECETEVS
B2: MBP-OD with mutation of D1256 (D1256A) (domain or fragment, human, UniProt Q12888 1233-1288, looked up)
chain: B1 chain with D24A

Biological target: the molecule itself
Test: SEC-RALS

| Protein | stoichiometry N |
| --- | --- |
| B1 | 4 |
| B2 | 2 |
